Experimental data published in US20160003844A1 (MOGAM BIOTHECHNOLOGY INSTITUTE, published 2016).
Where a chain is given by its changes, count along the chain named.

B1: HER3#62 (other)
VH: EVQLVESGGGLVQPGGSLRLSCAASGFTFSSYAMGWVRQAPGKGPEVVSLISGSGGSTWYDDSVKGRFTISRDNSKNTLYLQMNSLRAEDTAVYYCASHPPRVDTWGQGTLVTVSS
notes: Human VH domain antibody (single heavy chain variable domain)
B2: HER3#748 (other)
VH: B1 VH with S30Y, Y32L, A33M, H99R, P100H, R102P, V103G, D104L, T105M
notes: as for B1
B3: HER3#723 (other)
VH: B1 VH with S30Y, S31N, A33P, D90N, P101V, R102S, V103L, D104L, T105F
notes: Human VH domain antibody (single heavy chain variable domain), FR3 reads ...SLRAEN TAVYYC (N where the other clones have D)
B4: HSA50 (other)
VH: B1 VH with P100Q, P101F, R102T, V103T, D104T, T105Q
notes: as for B1
B5: HSA9 (other)
VH: B1 VH with P100Q, P101W, R102S, V103R, D104Q, T105Q
notes: Human VH domain antibody (single heavy chain variable domain) selected from a CDR-engineered library; its FR2 matches the MG8-4 scaffold
B6: HSA11 (other)
VH: B1 VH with P100K, P101F, V103N, D104L, T105K
notes: as for B1

The binders below were run against T1, Human Epidermal Growth Factor Receptor-3 (human, UniProt P21860 20-643, limits assumed) (assay: method not stated; 'Affinity (nM)').
T1 construct: also called HER3
T1 sequence (P21860 20-643 limits assumed): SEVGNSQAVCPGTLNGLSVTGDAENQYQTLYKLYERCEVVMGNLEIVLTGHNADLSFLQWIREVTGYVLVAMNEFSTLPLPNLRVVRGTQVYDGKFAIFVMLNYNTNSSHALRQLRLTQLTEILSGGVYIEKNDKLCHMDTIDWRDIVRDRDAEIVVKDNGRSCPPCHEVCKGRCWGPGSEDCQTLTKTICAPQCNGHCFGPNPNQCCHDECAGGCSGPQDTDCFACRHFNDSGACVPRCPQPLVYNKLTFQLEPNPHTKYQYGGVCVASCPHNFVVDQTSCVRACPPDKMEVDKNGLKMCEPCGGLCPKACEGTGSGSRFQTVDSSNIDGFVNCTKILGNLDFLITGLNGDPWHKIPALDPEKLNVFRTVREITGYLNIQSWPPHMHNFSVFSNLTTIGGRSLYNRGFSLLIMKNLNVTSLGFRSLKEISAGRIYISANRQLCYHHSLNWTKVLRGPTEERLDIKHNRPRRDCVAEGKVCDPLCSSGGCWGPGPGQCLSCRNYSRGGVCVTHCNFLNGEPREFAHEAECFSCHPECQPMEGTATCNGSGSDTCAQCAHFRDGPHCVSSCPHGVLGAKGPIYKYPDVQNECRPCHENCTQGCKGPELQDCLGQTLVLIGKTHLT

Binder | Kd
B1 | 1.8 nM
B2 | 20 nM
B3 | 27.4 nM

Each binder was assayed against T2, human serum albumin (human, UniProt P02768 25-609) (assay: method not stated; 'Affinity (nM)').
T2 construct: also called HAS; HSA
T2 sequence (P02768 25-609 limits assumed): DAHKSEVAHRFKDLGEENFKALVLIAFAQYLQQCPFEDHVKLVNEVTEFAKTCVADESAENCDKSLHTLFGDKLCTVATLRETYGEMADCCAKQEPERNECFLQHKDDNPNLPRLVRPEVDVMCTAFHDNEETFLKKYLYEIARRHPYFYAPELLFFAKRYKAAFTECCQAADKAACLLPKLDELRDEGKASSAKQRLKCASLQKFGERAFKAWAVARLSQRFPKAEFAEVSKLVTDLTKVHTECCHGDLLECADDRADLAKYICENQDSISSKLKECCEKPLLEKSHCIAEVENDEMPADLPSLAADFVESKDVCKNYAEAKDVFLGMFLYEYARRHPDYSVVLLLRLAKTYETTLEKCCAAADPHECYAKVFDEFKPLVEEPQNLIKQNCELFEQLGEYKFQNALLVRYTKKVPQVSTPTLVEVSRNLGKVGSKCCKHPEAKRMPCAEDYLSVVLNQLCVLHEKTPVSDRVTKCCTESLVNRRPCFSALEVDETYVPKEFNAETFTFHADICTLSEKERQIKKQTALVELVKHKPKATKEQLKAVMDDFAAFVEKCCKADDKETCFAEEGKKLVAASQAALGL

Binder | Kd
B4 | 7.8 nM
B5 | 1.7 nM
B6 | 1.2 nM
